# Measured values taken from PMC5625722.
# Target: Proliferating cell nuclear antigen (PCNA), wild type (UniProt P15873)
# Test: MST; fluorescently labeled PCNA (22 nM, RED-NHS) constant, Mus81 (1-319) fragment 1.3-5500 nM; T buffer with 0.05% Tween-20 and 150 mM KCl; 25 °C; Monolith NT.115; apparent Kd
row,Kd [µM],Binder
1,0.253,N-terminal fragment of Mus81 (1-319) (domain or fragment) MELSSNLKDLYIEWLQELVDGLTPKQEQLKIAYEKAKRNLQNAEGSFYYPTDLKKVKGIGNTIIKRLDTKLRNYCKIHHISPVEAPSLTQTSSTRPPKRTTTALRSIVNSCENDKNEAPEEKGTKKRKTRKYIPKKRSGGYAILLSLLELNAIPRGVSKEQIIEVAGKYSDHCMTPNFSTKEFYGAWSSIAALKKHSLVLEEGRPKRYSLTEEGVELTKSLKTADGISFPKENEEPNEYSVTRNESSEFTANLTDLRGEYGKEEEPCDINNTSFMLDITFQDLSTPQRLQNNVFKNDRLNSQTNISSHKLEEVSDDQTV
2,20.5,Mus81 (1-319) E44Q mutant (domain or fragment) MELSSNLKDLYIEWLQELVDGLTPKQEQLKIAYEKAKRNLQNAQGSFYYPTDLKKVKGIGNTIIKRLDTKLRNYCKIHHISPVEAPSLTQTSSTRPPKRTTTALRSIVNSCENDKNEAPEEKGTKKRKTRKYIPKKRSGGYAILLSLLELNAIPRGVSKEQIIEVAGKYSDHCMTPNFSTKEFYGAWSSIAALKKHSLVLEEGRPKRYSLTEEGVELTKSLKTADGISFPKENEEPNEYSVTRNESSEFTANLTDLRGEYGKEEEPCDINNTSFMLDITFQDLSTPQRLQNNVFKNDRLNSQTNISSHKLEEVSDDQTV
